Reference: patent publication US20210388110A1 (published 2021)
Residue numbers refer to the chain shown, from its start.

B1: GCH054-G1dh/none-Hi-Kn010G3/L0011-k0 (antibody, human IgG1, kappa)
heavy: not shown
chain: EPKSSDKTHTCPPCPAPELLGGPSVFLFPPKPKDTLMISRTPEVTCVVVDVSHEDPEVKFNWYVDGVEVHNAKTKPREEQYNSTYRVVSVLTVLHQDWLNGKEYKCKVSNKALPAPIEKTISKAKGQPREPQVCTLPPSRDELTKNQVSLWCLVKGFYPSDIAVEWESNGQPENNYKTTPPVLDSDGSFFLYSKLTVDKSRWQQGNVFSCSVMHEALHNRYTQKSLSLSP
light: DIVMTQSPLSLPVTPGEPASISCRSSQPLVHSNRNTYLHWYQQKPGQAPRLLIYKVSNRFSGVPDRFSGSGSGTDFTLKISRVEAEDVGVYYCGQGTQVPYTFGQGTKLEIKRTVAAPSVFIFPPSDEQLKSGTASVVCLLNNFYPREAKVQWKVDNALQSGNSQESVTEQDSKDSTYSLSSTLTLSKADYEKHKVYACEVTHQGLSSPVTKSFNRGEC
notes: single-arm antibody
B2: H0610-G1dh/none-Hi-Kn010G3/TR01L003-k0 (antibody, human IgG1, kappa)
heavy: not shown
chain: B1 chain
light: B1 light with P28S, L109V, K112E
notes: single-arm antibody
B3: H0610-G1dh/none-Hi-Kn010G3/TR01L005-k0 (antibody, human IgG1, kappa)
heavy: not shown
chain: B1 chain
light: B1 light with P28S, Q42L, A48S, R50Q, L109V, K112E
notes: single-arm antibody
B4: H0610-G1dh/none-Hi-kn010G3/L0106-k0 (antibody, human IgG1, kappa)
heavy: not shown
chain: B1 chain
light: B1 light with P28S, N58H
notes: single-arm antibody
B5: H0610-G1dh/none-Hi-kn010G3/L0137-k0 (antibody, human IgG1, kappa)
heavy: not shown
chain: B1 chain
light: B1 light with P28S, S61G
notes: single-arm antibody
B6: H0610-G1dh/none-Hi-Kn010G3/L0000-k0 (antibody, human IgG1, kappa)
heavy: not shown
chain: B1 chain
light: B1 light with P28S
notes: single-arm antibody
B7: GCH065-G1dh/none-Hi-Kn010G3/L0011-k0 (antibody, human IgG1, kappa)
heavy: not shown
chain: B1 chain
light: B1 light
notes: single-arm antibody
B8: GCH094-G1dh/none-Hi-Kn010G3/L0011-k0 (antibody, human IgG1, kappa)
heavy: not shown
chain: B1 chain
light: B1 light
notes: single-arm antibody

These binders were tested against T1, soluble human GPC3 (human, UniProt P51654 25-563, limits assumed) (assay: SPR (Biacore), single-arm antibody, soluble human GPC3).
T1 construct: also called glypican 3
T1 sequence (P51654 other isoform, or with tags, fused parts or gaps limits assumed, form in doubt): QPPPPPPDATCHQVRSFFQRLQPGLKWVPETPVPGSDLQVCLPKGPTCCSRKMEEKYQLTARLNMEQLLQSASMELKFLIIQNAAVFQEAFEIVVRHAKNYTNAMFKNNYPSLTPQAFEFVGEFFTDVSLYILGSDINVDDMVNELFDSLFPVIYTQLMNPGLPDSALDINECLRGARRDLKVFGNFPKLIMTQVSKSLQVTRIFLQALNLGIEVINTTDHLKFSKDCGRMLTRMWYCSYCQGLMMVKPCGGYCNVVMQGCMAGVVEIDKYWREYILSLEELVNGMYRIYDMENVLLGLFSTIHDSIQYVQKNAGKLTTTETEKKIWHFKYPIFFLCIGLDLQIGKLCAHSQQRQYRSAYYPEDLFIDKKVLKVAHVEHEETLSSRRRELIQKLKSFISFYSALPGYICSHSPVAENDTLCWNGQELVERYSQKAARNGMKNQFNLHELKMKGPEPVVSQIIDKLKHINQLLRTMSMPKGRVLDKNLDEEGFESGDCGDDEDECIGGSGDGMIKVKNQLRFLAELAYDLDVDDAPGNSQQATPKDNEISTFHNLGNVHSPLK

**Q.** For B1, which Kd is on record?
**A.** 5.25 nM

**Q.** With B2 as the binder, how does the Kd read?
**A.** 5.08 nM

**Q.** How did the Kd turn out when B3 was run?
**A.** 5.37 nM

**Q.** How did the Kd turn out when B4 was run?
**A.** 5.66 nM

**Q.** Which Kd does the source give for B5 here?
**A.** 5.87 nM

Molecular target: T1, soluble human GPC3
Experiment: as above
Remark: another data set of the same source

**Q.** With B6 as the binder, how does the Kd read?
**A.** 4.16 nM

**Q.** How did the Kd turn out when B1 was run?
**A.** 5.25 nM

**Q.** B7 was tested. Which Kd did it give?
**A.** 0.884 nM

**Q.** For B8, which Kd is on record?
**A.** 4.54 nM
